Drawing on patent US20250066455A1 (published 2025), this text covers IC50 and Kd for five molecules.

The target of assay [1] is T1, SARS-CoV-2 spike receptor-binding domain (RBD) (SARS-CoV-2, UniProt P0DTC2 319-541). Kind of assay: ELISA. A general note: In an ELISA, binding on a coated surface is turned into a signal by an enzyme label.
The target of assay [2] is T1, SARS-CoV-2 spike receptor-binding …. Kind of assay: BLI.
The target in the next assay is SARS-CoV-2 WT RBD (SARS-CoV-2, UniProt P0DTC2 319-541). Kind of assay: BLI. In general terms: Biolayer interferometry detects binding as a change in optical thickness at a sensor tip.
Another assay deals with RBD (SARS-CoV-2, UniProt P0DTC2 319-541). As to the kind of experiment: ELISA.

B1: PDI 231 (antibody, V domains shown)
VH: EVQLVESGGGLIQPGGSLRLSCVASGLTVSSNYMNWVRQTPGKGLEWVSVIYSGGSTFYADSVKGRFTISRDNSKNTLFLQMNSLRAEDTAVYYCARVGGYCSSANCVSDVWGKGTTVTVSS
VL: DIQMTQSPSSLSASVGDRVTITCQASQDIRNYLNWYQQKPGKAPKIMIYDASILETGVPSRFSGSGSGTDFTFTISSLQPEDIATYYCQQYDNLPITFGQGTQLEIK
In general, IC50 refers to the concentration that gives 50% inhibition. Lower therefore signals inhibition by little substance. As a reminder, the Kd is the concentration at which binding is half-saturated. Consider B1, for which the IC50 in assay [1] came to 0.328 µg/mL. The molecule further displayed a Kd in assay [2] of 0.38 nM.

B2: PDI 42 (antibody, V domains shown)
VH: EVQLVESGGGLVQPGGSLRLSCAASGLTVSSNYMSWVRQAPGKGLEWVSVFYPGGSTYNADSVKGRFTISRDNSKNTLYLQMNSLRAEDTAVYYCARDAVYYGMDVWGQGTTVTVSS
VL: not shown
B2 came in with an IC50 in assay [1] of 0.31 µg/mL. In assay [2], this molecule returned a Kd of 1.1 nM.

B3: PDI 96 (antibody, V domains shown)
VH: LVQLVQSGAEVKKPGASVKISCKASGYTFTSYYMHWVRQAPGQGLEWMGIINPSGGGTSYAQKFQGRVTMTRDTSTSTVYMELTSLRSDDTAVYYCAKDRVTIFWGNGMDVWGQGTTVTVSS
VL: not shown
Consider B3, for which, in assay [1], the IC50 amounted to 0.346 µg/mL. Moreover, the Kd in assay [2] amounted to 2.6 nM.

B4: REGN10933 (antibody, V domains shown)
VH: QVQLVESGGGLVKPGGSLRLSCAASGFTFSDYYMSWIRQAPGKGLEWVSYITYSGSTIYYADSVKGRFTISRDNAKSSLYLQMNSLRAEDTAVYYCARDRGTTMVPFDYWGQGTLVTVSS
VL: DIQMTQSPSSLSASVGDRVTITCQASQDITNYLNWYQQKPGKAPKLLIYAASNLETGVPSRFSGSGSGTDFTFTISGLQPEDIATYYCQQYDNLPLTFGGGTKVEIKR
With B4, the affinity with SARS-CoV-2 WT RBD, expressed as Kd, was 3.5 nM. This molecule came in with an IC50 with RBD of 0.293 µg/mL.

B5: REGN10987 (antibody, V domains shown)
VH: QVQLVESGGGVVQPGRSLRLSCAASGFTFSNYAMYWVRQAPGKGLEWVAVISYDGSNKYYADSVKGRFTISRDNSKNTLYLQMNSLRTEDTAVYYCASGSDYGDYLLVYWGQGTLVTVSS
VL: QSALTQPASVSGSPGQSITISCTGTSSDVGGYNYVSWYQQHPGKAPKLMIYDVSKRPSGVSNRFSGSKSGNTASLTISGLQSEDEADYYCNSLTSISTWVFGGGTKLTVLR
In turn, B5 came in with a Kd with SARS-CoV-2 WT RBD of 17.6 nM. This molecule showed a 50% inhibitory concentration (IC50) in the assay with RBD of 0.298 µg/mL.
